Here are results for 1 substance from PMC2189805.

The experiment deals with SETα (human (endogenous in HeLa)) (UniProt Q01105). As to the kind of experiment: co-IP.
UniProt Q01105, sequence (Q01105 2-290): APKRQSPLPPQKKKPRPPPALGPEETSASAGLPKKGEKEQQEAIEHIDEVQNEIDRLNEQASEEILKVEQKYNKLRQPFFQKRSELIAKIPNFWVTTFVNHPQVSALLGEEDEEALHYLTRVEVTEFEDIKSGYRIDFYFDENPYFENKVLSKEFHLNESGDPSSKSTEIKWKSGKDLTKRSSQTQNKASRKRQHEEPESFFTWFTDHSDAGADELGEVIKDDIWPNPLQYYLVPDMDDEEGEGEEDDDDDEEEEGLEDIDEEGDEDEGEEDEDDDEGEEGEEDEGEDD

Substance “HuR (endogenous) (from UniProt Q15717 1-326) (natural protein)” gave a percent of total cellular HuR bound of 5%.
